Measured values from US20210284749A1 (ABL BIO, published 2021).

B1: anti-BCMA IgG antibody 5A6 (antibody, V domains shown)
VH: EVQLLESGGGLVQPGGSLRLSCAASGFTFSNYGVHWVRQAPGKGLEWVSYISYSGGTYYNPSLKSRFTISRDNSKNTLYLQMNSLRAEDTAVYYCARDSDDFGFDYWGQGTLVTVSS
VL: QSVLTQPPSASGTPGQRVTISCQGDSLRSYYVNWYQQLPGTAPKLLIYDHSKRPTGVPDRFSGSKSGTSASLAISGLRSEDEADYYCQSYDSSTVVFGGGTKLTVLG
notes: also called 5A6 WT; 5A6 antibody
B2: anti-BCMA IgG antibody 5D5 (antibody, V domains shown)
VH: EVQLLESGGGLVQPGGSLRLSCAASGFTFSDYGLSWVRQAPGKGLEWVSLIDSSGSSTFYADSVKGRFTISRDNSKNTLYLQMNSLRAEDTAVYYCAKEHGLFDSWGQGTLVTVSS
VL: EIVLTQSPGTLSLSPGERATLSCKASQDIDDDINWYQQKPGQAPRLLIYDASLRATGIPDRFSGSGSGTDFTLTISRLEPEDFAVYYCQQSLRTPITFGQGTKLEIKR
notes: also called 5D5 WT; 5D5 antibody

Experiments:
[1] = biological target: T1, monkey (Rhesus) BCMA (1-53) fused to the Fc region of human IgG1 (monkey (Rhesus); human, UniProt Q02223 1-54); test: BLI (Octet), monkey BCMA
T1 construct: Sino Biological Inc. 90103-C02H; also called monkey BCMA; Monkey BCMA (1-53); not shown: Fc region of human IgG1

[2] = biological target: T1, monkey (Rhesus) BCMA (1-53) fused to …; test: ELISA on 100 ng coated rhesus BCMA, antibody titrated, anti-human Fab HRP, absorbance 450 nm
Method: (§1) 100 ng of human, monkey, mouse, and rat BCMA antigens prepared in Example 1.1 were coated on the bottom of the plate, and then coated with 3% BSA to block nonspecific binding. Using the selected anti-BCMA IgG antibodies as primary antibodies, and the anti-human Fab HRP (1:20000 dilution) as a secondary antibody, ELISA assay was performed as described in Example 1.3.
(§2) Absorbancies at 450 nm measured with a microplate reader are shown in FIG. 3, and half maximal effective concentrations (EC₅₀) (nM) are shown in Table 9.

[3] = biological target: T2, human monomeric BCMA antigen (human, UniProt Q02223 5-54, limits assumed); test: SPR (Biacore T200), antibody captured on protein A chip, antigen 6.25-100 nM
T2 construct: also called recombinant human BCMA antigens
T2 chain: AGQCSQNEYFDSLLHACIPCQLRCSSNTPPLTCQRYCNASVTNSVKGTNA
Method: In particular, the prepared antibodies were diluted with a 1×HPS-EP buffer (GE Healthcare, BR-1006-69). The target antigen-binding affinity analysis was performed using a Biacore T200 (GE Healthcare). The antibodies were flowed onto a protein A chip at a contact time of 60 seconds, a stabilization time of 30 seconds, and a flow rate of 30 μl/min until a capture level reached 128 RU (Response Unit), thereby preparing an antibody-captured protein A chip.
The antigen was sequentially diluted with a 1×HPS-EP buffer, by 2-fold each time, from 100 nM to 6.25 nM, thereby preparing a total of […] samples. The 1×HPS-EP buffer was used as a negative control group (blank).
The prepared antigen was flowed across the antibody-captured protein A chip at a flow rate of 30 μl/min for an association time of 60 seconds, followed by a disassociation phase for 180 seconds. Regeneration was performed with a 10-mM Glycine-HCL (pH 1.5) buffer (GE Healthcare, BR-1003-54) at a flow rate of 30 μl/min for a contact time of 30 seconds.

[4] = biological target: T3, mouse BCMA (1-49) fused to the Fc region of human IgG1 (mouse; human, UniProt O88472 1-49); test: ELISA on 100 ng coated mouse BCMA, antibody titrated, anti-human Fab HRP, absorbance 450 nm
T3 construct: Sino Biological Inc. 50076-M01H; also called 50076-M01H; not shown: Fc region of human IgG1
T3 chain: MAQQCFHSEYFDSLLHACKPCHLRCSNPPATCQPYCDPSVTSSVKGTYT
Method: as §1, §2

[5] = biological target: T4, recombinant human BCMA (ELISA antigen, construct not specified) (human, UniProt Q02223 1-54); test: ELISA, 100 ng coated antigen
T4 construct: Fc 1-51; Fc/His 1-51; Fc 4-48) was coated in these ELISAs; also called recombinant BCMA; recombinant protein
T4 sequence: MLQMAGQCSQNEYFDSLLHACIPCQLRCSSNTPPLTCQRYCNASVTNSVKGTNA
Method: as §1, §2

[6] = biological target: T1, monkey (Rhesus) BCMA (1-53) fused to …; test: ELISA, 100 ng coated antigen
Method: as §1, §2

[7] = biological target: T5, human BCMA expressed on cell surface (H929, OPM-2, CHOK1-hBCMA cells) (human, UniProt Q02223 1-184); test: FACS on OPM-2 cells, 10 µg/ml antibody, anti-human Fc-FITC; open histogram shifted right of the filled control
T5 construct: also called cell-surface BCMA; BCMA on cell surface
T5 sequence: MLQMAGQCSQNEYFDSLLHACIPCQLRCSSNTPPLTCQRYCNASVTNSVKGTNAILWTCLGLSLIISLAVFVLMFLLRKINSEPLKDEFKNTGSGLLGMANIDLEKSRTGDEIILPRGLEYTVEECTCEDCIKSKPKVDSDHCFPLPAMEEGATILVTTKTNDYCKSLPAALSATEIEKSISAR
Method: (§3) Multiple myeloma cancer cells H929 (ATCC, CRL9068™) and OPM-2 cell line (DSMZ, ACC 50), which are known to express BCMA, were prepared, and human BCMA-overexpressed CHOK1-hBCMA cell line (constructed by ABIBio) were prepared.
(§4) 10 μg/ml of the seven IgG antibodies (B58, 5A6, 5D5, 5B5, 1H, 2G, and 5G) purified in Example 1.4 was added to the prepared cells, incubated at 4° C. for 1 hour, and then washed two times with a PBS buffer solution. The anti-human Fc-FITC was diluted in 1:400, incubated at 4° C. for 1 hour, and then washed with a PBS buffer solution. These processes were repeated. In FIGS. 2A and 2B, MFI indicates mean fluorescence intensity.

[8] = biological target: T5, human BCMA expressed on cell surface …; test: FACS on H929 cells
[9] = biological target: T5, human BCMA expressed on cell surface …; test: FACS on H929 cells, 10 µg/ml antibody, anti-human Fc-FITC; open histogram shifted right of the filled control
Method: as §3, §4

Binder | Kd [1] [nM] | koff [1] [s⁻¹] | kon [1] [M⁻¹ s⁻¹] | EC50 (read off the curve) [2] [µg/mL] | Kd [3] [nM] | koff [3] [s⁻¹] | kon [3] [M⁻¹ s⁻¹] | binding result [4] | EC50 [5] [nM] | EC50 [6] [nM] | MFI [7] | MFI [8] | MFI [9] | EC50 (read off the curve) [4] [µg/mL]
B1 | 4.51 | 0.00163 | 361000 | ~0.02 | 62.4 | 0.0249 | 399000 | no binding (tested: about 30 µg/ml) | 100 | 153 | 54.7 | 68.2 | 100 | 
B2 | 0.346 | 0.000585 | 1.69e+06 | ~0.01 | 22.8 | 0.0601 | 2.63e+06 |  | 140 | 94 | 21.8 | 36.4 | 29.9 | ~0.01
